We go through one substance from patent US20250382354A1.

The target in assay [1] is CRCoV-240/05 HR2 peptide (CRCoV-240/05). Nature of the assay: peptide ELISA.
The target of assay [2] is HKU24 HR2 peptide (HKU24). In words: peptide ELISA.
The next assay has as its target HKU4 HR2 peptide (HKU4) (UniProt A3EX94). Nature of the assay: peptide ELISA.
Another assay addresses HKU5 HR2 peptide (HKU5) (UniProt A3EXD0). In words: peptide ELISA.
The next assay addresses MHV HR2 peptide (MHV). In words: peptide ELISA.
The target of assay [3] is SARS-CoV-2 HR2 peptide (SARS-CoV-2) (UniProt P0DTC2). In words: peptide ELISA.
Another assay has as its target MERS S ectodomain (MERS). In words: ELISA on coated S.
Assay [4] concerns the target C-terminally truncated SARS-CoV-2 S protein (pSARS-CoV2-Strunc), ancestral (SARS-CoV-2) (UniProt P0DTC2). Nature of the assay: cell-based or functional assay.

As to S2P6 (antibody), the EC50 is 0.0189 µg/mL in assay [1]; 0.0101 µg/mL in assay [2]; 9.75 ng/mL with HKU4 HR2 peptide (HKU4); 0.0345 µg/mL with HKU5 HR2 peptide (HKU5); 0.0215 µg/mL with MHV HR2 peptide (MHV); 0.0166 µg/mL in assay [3]. This substance registered an EC50 with MERS S ectodomain (MERS) of 0.066 µg/mL. The substance also had an Ancestral Pseudovirus IC50 (on cells with [not given]) in assay [4] of 23200 ng/mL.
